Results reported in patent US20260053904A1 (BIOATLA, published 2026).
Positions count from the first letter of the chain named. Values belong to the binder of their own block, whether it stands above or below them.

Columns and labels:
[1] = biological target: T1, human EpCAM expressed on cells (CHO, Colo205, 293) (human, UniProt P16422 24-314); assay: FACS on Colo205 cells, antibody at 1 ug/mL, pH 6.0 and pH 7.4
T1 construct: whole, on cells; also called CHO cells expressing human EpCAM; Colo205 cells expressing human EpCAM
T1 sequence (looked up): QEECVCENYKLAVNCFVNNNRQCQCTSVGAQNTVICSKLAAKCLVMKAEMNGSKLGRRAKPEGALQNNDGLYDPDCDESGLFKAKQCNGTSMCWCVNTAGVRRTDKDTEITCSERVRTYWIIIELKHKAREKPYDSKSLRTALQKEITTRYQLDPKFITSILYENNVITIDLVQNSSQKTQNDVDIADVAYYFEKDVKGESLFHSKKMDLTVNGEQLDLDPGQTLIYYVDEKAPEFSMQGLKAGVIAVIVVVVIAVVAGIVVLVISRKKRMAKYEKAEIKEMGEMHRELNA
Description: The binding activity of these anti-EpCAM antibodies to EpCAM expressing Colo205 cells were measured by fluorescence activated cell sorting (FACS) at two different pH values of 6.0 and 7.4. Different dosages of the antibodies of 10 μg/mL, 1 μg/mL, 0.1 μg/mL and 0.01 μg/mL were used.

[2] = biological target: T2, recombinant human EpCAM extracellular domain (human, UniProt P16422 24-265); assay: ELISA on human EpCAM, pH range 5.0 to 7.4
T2 construct: extracellular domain; Plate-coated antigen of the ELISAs; also called human EpCAM ECD; recombinant EpCAM antigen
T2 sequence (looked up): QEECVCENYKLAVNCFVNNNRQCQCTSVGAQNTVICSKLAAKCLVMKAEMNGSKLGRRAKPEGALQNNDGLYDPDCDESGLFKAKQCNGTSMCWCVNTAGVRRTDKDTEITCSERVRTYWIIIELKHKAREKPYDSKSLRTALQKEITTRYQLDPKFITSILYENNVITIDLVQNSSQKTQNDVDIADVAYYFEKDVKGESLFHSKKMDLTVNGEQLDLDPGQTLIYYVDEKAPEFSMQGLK

[3] = biological target: T2, recombinant human EpCAM extracellular …; assay: direct binding ELISA, human EpCAM, pH 7.4 (table prints IC50, the text paragraph 376 says EC50)
[4] = biological target: T3, cyno EpCAM (recombinant, ELISA antigen) (cynomolgus monkey); assay: direct binding ELISA, cyno EpCAM; ratio of the printed IC50 at pH 7.4 to pH 6.0
T3 construct: extracellular domain; also called cynomolgus EpCAM extracellular domain

[5] = biological target: T2, recombinant human EpCAM extracellular …; assay: direct binding ELISA, human EpCAM; ratio of the printed IC50 at pH 7.4 to pH 6.0
[6] = biological target: T4, cyno EpCAM expressed on 293 cells (cynomolgus monkey); assay: FACS on 293 cells expressing cyno EpCAM, pH 7.4
T4 construct: whole, on cells; also called 293 cells expressing cyno EpCAM
T4 sequence (Q1WER1 24-314): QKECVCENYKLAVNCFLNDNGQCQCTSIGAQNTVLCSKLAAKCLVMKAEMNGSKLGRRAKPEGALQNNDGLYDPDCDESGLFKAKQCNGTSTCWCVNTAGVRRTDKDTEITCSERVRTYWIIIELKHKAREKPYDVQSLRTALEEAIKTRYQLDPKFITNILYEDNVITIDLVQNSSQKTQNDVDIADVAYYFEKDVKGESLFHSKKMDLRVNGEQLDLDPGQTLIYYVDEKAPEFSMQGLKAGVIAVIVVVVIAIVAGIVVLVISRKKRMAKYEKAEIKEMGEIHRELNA
Description: (§1) A similar FACS analysis was also carried out using 293 cells expressing cyno EpCAM. […] The EC50 values for binding to the 293 cells expressing cyno EpCAM by the humanized conditionally active anti-EpCAM antibodies are summarized in Table 11.

[7] = biological target: T3, cyno EpCAM (recombinant, ELISA antigen); assay: ELISA, cyno EpCAM, pH 6.0
Description: (§2) The binding activities of the humanized conditionally active anti-EpCAM antibodies to cyno EpCAM were similarly measured. The EC50 for binding to the cyno EpCAM at pH 6.0 and pH 7.4 for the humanized conditionally active anti-EpCAM antibodies are summarized in Table 7.
(§3) The ELISA assay was performed using the following protocol: [0388] 1) Coat ELISA plates with 100 μL of 0.5 μg/mL (06_20_17 and 06_28_17 Experiments) or 1 μg/mL (07_06_17 and 07_11_17 Experiments) recombinant EpCAM antigen in carbonate-bicarbonate coating buffer [0389] 2) Cover plates with sealing film and incubate overnight at 4° C. [0390] 3) Decant plates and tap out residual liquid on a stack of paper towels [0391] […] 5) Add 200 μL of various pH incubation buffers to the wells according to the sample map.

[8] = biological target: T1, human EpCAM expressed on cells (CHO, …); assay: FACS on Colo205 cells expressing human EpCAM, pH 6.0
Description: (§4) Binding activities of the humanized conditionally active anti-EpCAM antibodies to Colo205 cells expressing human EpCAM were measured by FACS at pH 6.0 and pH 7.4. […] The EC50 values for binding to the Colo205 cells expressing human EpCAM by the humanized conditionally active anti-EpCAM antibodies are summarized in Table 9.

[9] = biological target: T1, human EpCAM expressed on cells (CHO, …); assay: FACS on Colo205 cells expressing human EpCAM, pH 7.4
Description: as §4

[10] = biological target: T1, human EpCAM expressed on cells (CHO, …); assay: FACS on 293 cells expressing human EpCAM, pH 6.0
Description: (§5) A similar FACS analysis was also carried out using 293 cells expressing human EpCAM. […] The EC50 values for binding to the 293 cells expressing human EpCAM by the humanized conditionally active anti-EpCAM antibodies are summarized in Table 10.

[11] = biological target: T4, cyno EpCAM expressed on 293 cells; assay: FACS on 293 cells expressing cyno EpCAM, pH 6.0
Description: as §1

[12] = biological target: T3, cyno EpCAM (recombinant, ELISA antigen); assay: direct binding ELISA, cyno EpCAM, pH 7.4 (printed as IC50)
[13] = biological target: T3, cyno EpCAM (recombinant, ELISA antigen); assay: ELISA, cyno EpCAM, pH 7.4
Description: as §2, §3

[14] = biological target: T3, cyno EpCAM (recombinant, ELISA antigen); assay: direct binding ELISA, cyno EpCAM, pH 6.0 (printed as IC50)
[15] = biological target: T2, recombinant human EpCAM extracellular …; assay: ELISA, human EpCAM, pH 6.0
Description: (§6) The binding activities of the humanized conditionally active anti-EpCAM antibodies to human EpCAM were measured by ELISA, using the template antibody BAP-1-5-01-06, as a control. The EC50 values of the humanized conditionally active anti-EpCAM antibodies for binding to human EpCAM at pH 6.0 and pH 7.4 are summarized in Table 5.
as §3

[16] = biological target: T2, recombinant human EpCAM extracellular …; assay: ELISA, human EpCAM, pH 7.4
Description: as §6, §3

[17] = biological target: T1, human EpCAM expressed on cells (CHO, …); assay: FACS on 293 cells expressing human EpCAM, pH 7.4
Description: as §5

[18] = biological target: T2, recombinant human EpCAM extracellular …; assay: direct binding ELISA, human EpCAM, pH 6.0 (table prints IC50, the text paragraph 376 says EC50)
[19] = biological target: T2, recombinant human EpCAM extracellular …; assay: ELISA on human EpCAM at pH 6.0 after heating the antibody for 1 h at 4, 37, 45, 55 or 60 C
Description: The thermostability of the humanized conditionally active anti-EpCAM antibodies was evaluated by measuring their binding activities after heat treatment. The binding activities of the humanized conditionally active anti-EpCAM antibodies to human EpCAM after heat treatment for one (1) hour at different temperatures at pH 6.0 and pH 7.4 were measured by ELISA.
as §3

B2: BAP-105-01-01 (antibody, V domains shown)
VH: QVQLQQSGAELAKPGASVKVSCKASGYTFTSYWMHWVKQRPGQGLEWIGYIRPSTGYTEYNQKFKDKATLTADKSSSTAYMQLSSLTFEDSAVYYCGRGDNWVGFANWGQGTLVTVSA
VL: QIVLTQSPAIMSASLGEEIALTCSASSSISYMHWYQQKSGTSPKLLIYSTSNLASGVPSRFSGSGSGTFYSLTISSVEAEDAADYFCHQWSTYHTFGSGTKLEIK
notes: Non-conditionally active control; also called template antibody (WT)
IC50 [3]: 0.0423 µg/mL
ratio (pH7.4/pH6.0) [4]: 1.44
ratio (pH7.4/pH6.0) [5]: 0.72
EC50 [6]: 0.863 µg/mL
EC50 [7]: 0.0112 µg/mL
EC50 [8]: 0.263 µg/mL
EC50 [9]: 0.268 µg/mL
EC50 [10]: 0.092 µg/mL
EC50 [11]: 0.625 µg/mL
IC50 [12]: 0.0416 µg/mL
EC50 [13]: 0.3 µg/mL
IC50 [14]: 0.0288 µg/mL
EC50 [15]: 0.00833 µg/mL
EC50 [16]: 0.00781 µg/mL
EC50 [17]: 0.125 µg/mL
IC50 [18]: 0.0586 µg/mL

B5: BA-105-06-02 (antibody, V domains shown)
VH: EVQLVQSGAEVKKPGATVKISCKVSGYTFTSYWMHWIRQPPGKGLEWIGYIRPSTGYTEYNQKFKDRFTISRDNSKNTLYLQMNSLRAEDTAVYYCGRGDNWVGFANWGQGTLVTVSS
VL: EIVLTQSPDFQSVTPKEKVTITCSASSSISYMHWYQQKPGKAPKLLIYSTSSLASGVPDRFSGSGSGTDFTLKISRVEAEDVGVYYCHQWSTYETFGQGTKVEIK
notes: Humanized
IC50 [3]: 0.262 µg/mL
ratio (pH7.4/pH6.0) [4]: 4.44
ratio (pH7.4/pH6.0) [5]: 2.5
IC50 [12]: 0.673 µg/mL
IC50 [14]: 0.152 µg/mL
IC50 [18]: 0.105 µg/mL

B6: BA-105-06-01 (antibody, V domains shown)
VH: B5 VH
VL: B5 VL with S52K
notes: Humanized
IC50 [3]: 0.168 µg/mL
ratio (pH7.4/pH6.0) [4]: 17.1
ratio (pH7.4/pH6.0) [5]: 5.6
IC50 [12]: 0.0635 µg/mL
IC50 [14]: 0.00371 µg/mL
IC50 [18]: 0.0299 µg/mL

Next, values leading:

binding result [1]: binds
binding result [2]: binds
B1: BAP-105-01-03 (antibody, V domains shown)
VH: B2 VH with R98D
VL: B2 VL

binding result [1]: binds
binding result [19]: binds
B3: BAP-105-01-06 (antibody, V domains shown)
VH: B2 VH
VL: B2 VL with H94E
notes: also called BAP-1-5-01-06

binding result [19]: binds
B4: 105.4-05-04 (antibody, V domains shown)
VH: B5 VH with P40S, G42S, K43R, I48L, N74D, L79A, R87K, A88T
VL: EIVMTQSPATLSVSPGERATLSCSASSSISYMHWYQQKPGKAPKLLIYSTSNLASGVPSRFSGSGSGTDFTLTISSLQPEDFATYYCHQWSTYETFGQGTKVEIK
